Data published in patent US20050048070A1 (published 2005).

What was measured:
[1] = target: T1, K18(1-124) GST fusion protein (human, UniProt P05783 2-125); assay: Western blot of SDS-PAGE-separated K18 GST fusion proteins, stained with COU-1 alone
T1 construct: Alone, not complexed; not shown: glutathione S-transferase (GST) fusion partner, modified pGEX-2T vector

[2] = target: T2, K18(1-385) GST fusion protein (human, UniProt P05783 2-386); assay: as above
T2 construct: Alone, not complexed; not shown: glutathione S-transferase (GST) fusion partner, modified pGEX-2T vector
T2 sequence: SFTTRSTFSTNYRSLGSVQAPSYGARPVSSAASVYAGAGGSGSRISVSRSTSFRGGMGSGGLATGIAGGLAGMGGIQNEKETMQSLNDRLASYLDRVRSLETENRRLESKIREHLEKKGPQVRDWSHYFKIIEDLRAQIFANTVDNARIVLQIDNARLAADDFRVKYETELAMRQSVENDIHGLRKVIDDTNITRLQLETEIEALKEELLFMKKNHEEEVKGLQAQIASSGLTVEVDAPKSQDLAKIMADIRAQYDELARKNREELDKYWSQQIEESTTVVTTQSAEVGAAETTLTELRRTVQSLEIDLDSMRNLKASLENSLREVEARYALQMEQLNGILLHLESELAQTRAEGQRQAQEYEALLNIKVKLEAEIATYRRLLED

[3] = target: T3, recombinant intact K18 (GST fusion protein) (human, UniProt P05783 2-430); assay: as above
T3 construct: Alone, not complexed with K8; also called full length K18; cytokeratin 18; not shown: glutathione S-transferase (GST) fusion partner, modified pGEX-2T vector
T3 sequence: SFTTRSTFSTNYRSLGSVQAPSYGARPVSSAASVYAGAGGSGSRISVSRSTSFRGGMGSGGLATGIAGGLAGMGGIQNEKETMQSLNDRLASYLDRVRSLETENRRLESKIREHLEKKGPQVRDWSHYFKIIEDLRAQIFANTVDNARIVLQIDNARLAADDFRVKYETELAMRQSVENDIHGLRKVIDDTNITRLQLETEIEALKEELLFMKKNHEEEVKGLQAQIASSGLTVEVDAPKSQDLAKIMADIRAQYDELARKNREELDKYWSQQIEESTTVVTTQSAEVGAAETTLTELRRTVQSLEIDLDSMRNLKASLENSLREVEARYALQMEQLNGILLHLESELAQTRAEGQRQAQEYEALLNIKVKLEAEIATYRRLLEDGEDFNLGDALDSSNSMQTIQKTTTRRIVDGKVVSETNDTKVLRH

[4] = target: T4, K8(130-483)/intact K18 heterotypic complex; assay: summary map of the heterotypic association assay: GST deletion protein incubated with the complementary keratin, then stained with COU-1
T4 construct: one member of the group m25; not shown: GST fusion partner (modified pGEX-2T) on the keratin proteins
T4 K8 fragment: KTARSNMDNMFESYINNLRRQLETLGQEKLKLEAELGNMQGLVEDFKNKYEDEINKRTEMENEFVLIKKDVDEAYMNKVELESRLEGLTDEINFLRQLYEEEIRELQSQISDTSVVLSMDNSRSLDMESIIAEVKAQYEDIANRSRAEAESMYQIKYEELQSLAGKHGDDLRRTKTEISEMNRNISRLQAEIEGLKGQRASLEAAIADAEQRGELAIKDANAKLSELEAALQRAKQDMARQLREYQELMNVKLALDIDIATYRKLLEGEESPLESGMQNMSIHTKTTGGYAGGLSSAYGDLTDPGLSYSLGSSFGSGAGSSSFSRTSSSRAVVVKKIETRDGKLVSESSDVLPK
T4 K18 intact: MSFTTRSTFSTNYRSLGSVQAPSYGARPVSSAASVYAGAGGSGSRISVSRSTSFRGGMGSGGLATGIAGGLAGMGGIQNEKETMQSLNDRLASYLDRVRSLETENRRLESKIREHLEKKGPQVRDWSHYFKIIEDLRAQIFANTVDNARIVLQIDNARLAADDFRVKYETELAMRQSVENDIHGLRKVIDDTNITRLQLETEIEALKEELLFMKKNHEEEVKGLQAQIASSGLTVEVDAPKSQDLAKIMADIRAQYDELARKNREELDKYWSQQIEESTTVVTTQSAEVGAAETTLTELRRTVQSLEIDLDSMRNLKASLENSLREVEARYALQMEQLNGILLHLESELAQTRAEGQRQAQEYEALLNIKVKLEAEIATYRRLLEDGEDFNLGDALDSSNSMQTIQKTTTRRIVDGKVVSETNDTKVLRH

[5] = target: T5, K8(1-65)/intact K18 heterotypic complex (human, UniProt P05787 2-66; P05783 2-430); assay: as above
T5 construct: Heterotypic complex of two GST fusion proteins; not shown: glutathione S-transferase (GST) fusion partner, modified pGEX-2T vector
T5 sequence 1: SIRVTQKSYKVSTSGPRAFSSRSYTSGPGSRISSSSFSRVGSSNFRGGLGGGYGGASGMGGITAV
T5 sequence 2: T3 sequence

[6] = target: T6, intact K8/K18(1-72) heterotypic complex (human, UniProt P05787 2-483; P05783 2-73); assay: as above
T6 construct: Heterotypic complex of two GST fusion proteins; also called K18(1-72)/intact K8; not shown: glutathione S-transferase (GST) fusion partner, modified pGEX-2T vector
T6 chain 1: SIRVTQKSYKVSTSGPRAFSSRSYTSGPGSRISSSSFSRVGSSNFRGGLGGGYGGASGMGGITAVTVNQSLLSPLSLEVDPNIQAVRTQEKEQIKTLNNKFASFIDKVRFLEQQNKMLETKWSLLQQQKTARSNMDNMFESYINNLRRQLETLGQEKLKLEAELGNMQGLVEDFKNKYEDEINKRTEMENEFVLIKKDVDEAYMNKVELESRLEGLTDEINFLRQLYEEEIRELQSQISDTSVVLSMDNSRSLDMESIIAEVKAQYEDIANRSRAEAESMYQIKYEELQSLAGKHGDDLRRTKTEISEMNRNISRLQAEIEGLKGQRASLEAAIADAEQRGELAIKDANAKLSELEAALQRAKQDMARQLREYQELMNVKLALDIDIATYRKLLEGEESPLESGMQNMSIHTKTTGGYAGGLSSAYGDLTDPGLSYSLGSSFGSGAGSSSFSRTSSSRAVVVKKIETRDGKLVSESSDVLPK
T6 chain 2: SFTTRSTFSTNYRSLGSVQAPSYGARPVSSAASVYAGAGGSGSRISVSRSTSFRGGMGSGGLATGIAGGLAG

B1: human monoclonal IgM antibody COU-1 (antibody, V domains shown)
VH: GAEVKKPGASVKVSCKASDYTFSSYYMHWVRQAPGQGLEWMGIINPSGGSTSYAQKFQGRVTMTRDTSTNTVYMELSSLRSEDTAVYYCARDQVVVAATLSNYGMDVWGQGTTVTVSS
VL: ELTQSPGTLSLSPGERATLSCRASQSVSSSYLAWYQQKPGQAPRLLIYDASNRATGIPARFSGSGSGTDFTLTISSLEPEDFAVYYCQQGTNWGIAFGQGTRLDIKR
notes: Human IgM with kappa light chain, secreted by hybridoma B9165 (ECACC 87040201), purified from culture supernatant; also called HMab COU-1; HuMab COU-1
B1: no binding (tested: 5 µg/ml COU-1 (P-0279)) [1]; no binding (tested: 5 µg/ml COU-1 (P-0279)) [2]; no binding (tested: 5 µg/ml COU-1 (P-0279)) [3]. B1: no binding (tested: 5 µg/ml COU-1 (P-0285)) [4]; no binding (tested: 5 µg/ml COU-1 (P-0285)) [5]; no binding (tested: 5 µg/ml COU-1 (P-0285)) [6].
